Source: US7592156B2, “Synthetic dog/human chimeric C-C chemokine receptor 2B” (Wyeth, priority 2006, dated 2009)
pEC50: −log10 of the molar value.

Key:
chimeric dog-human CCR2B = biological target: T1, chimeric dog-human CCR2B (Homo sapiens, UniProt P41597, A111V/A286I/C181V/C75S/D36S/E105G/E278K/F108L/F271S/G175R/G191S/G197A/G224A/G273N/G41A/I128T/I163V/I208V/I217V/I263L/I300V/I40V/I93L/K180T/K183I/K38R/L115S/L166M/L274V/L76M/L95I/L97F/N110E/N199K/N207S/N266S/P195Q/Q43G/R196Q/R240K/R243K/S101Y/T247V/T257A/T287M/V107L/V162G/V173L/V187F/V189S/V244L/Y188S/Y193Q/Y259N); assay: FLIPR calcium mobilization agonist assay in CHO-K1 cells expressing chimeric dog-human CCR2B; type: cell-based
T1 construct: expressed in transfected cells
T1 sequence (P41597 1-360 isoform P41597-2 D36S/K38R/I40V/G41A/Q43G/C75S/L76M/I93L/L95I/L97F/S101Y/E105G/V107L/F108L/N110E/A111V/L115S/I128T/V162G/I163V/L166M/V173L/G175R/K180T/C181V/K183I/V187F/Y188S/V189S/G191S/Y193Q/P195Q/R196Q/G197A/N199K/N207S/I208V/I217V/G224A/R240K/R243K/V244L/T247V/T257A/Y259N/I263L/N266S/F271S/G273N/L274V/E278K/A286I/T287M/I300V): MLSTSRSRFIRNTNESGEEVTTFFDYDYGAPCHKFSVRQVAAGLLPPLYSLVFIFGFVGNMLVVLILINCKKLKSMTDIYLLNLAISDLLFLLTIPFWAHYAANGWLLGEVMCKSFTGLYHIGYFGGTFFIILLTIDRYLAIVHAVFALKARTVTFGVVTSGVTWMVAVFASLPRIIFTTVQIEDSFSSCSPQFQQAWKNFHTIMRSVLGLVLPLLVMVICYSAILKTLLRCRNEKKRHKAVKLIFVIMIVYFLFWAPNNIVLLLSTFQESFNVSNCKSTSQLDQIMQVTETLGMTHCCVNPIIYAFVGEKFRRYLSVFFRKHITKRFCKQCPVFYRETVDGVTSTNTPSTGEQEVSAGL
Description: The chimeric CCR2B/cDNA3.1 plasmid of Example 1 was expressed in CHO-K1 cells using the Lipofectamine-Plus reagent (Invitrogen, Carlsbad, Calif., USA) according to manufacturer's instructions, and the resulting stable cell lines following selection with the antibiotic G418 were assayed for MCP-1-dependent calcium mobilization in a FLIPR assay. Cells were plated at 15,000 per well in a 384-well assay plate one day prior to assay. Calcium-3 indicator dye (Molecular Devices, Sunnyvale, Calif., USA) was added 1 hr prior to assay, and cells were incubated at 37° C. For the agonist assay, human MCP-1 was added to cells, followed immediately by reading of calcium mobilization on the FLIPR. RFU counts (Max-Min) were recorded for each MCP-1 concentration assayed. For the antagonist assay, the antagonist was added to the cells 20 min prior to addition of MCP-1. The MCP-1 activation of calcium mobilization in CCR2B/CHOK1 cells of Example 2 was extended to include examination of the effects of mouse and canine MCP-1 (FIG. 4A). […] The qualitative similarity of the results in the CHOK1 cells expressing the chimeric receptor and THP-1 cells, with their endogenous expression of the human receptor, lends evidence that the chimeric receptor faithfully recapitulates the activation pharmacology of the native receptor.

human CCR2B = biological target: T2, human CCR2B (Homo sapiens, UniProt P41597); assay: FLIPR calcium mobilization agonist assay in THP-1 cells; type: cell-based; conditions: endogenous human CCR2B expression
T2 construct: THP-1 cells, with their endogenous expression of the human receptor; endogenous in cells; host or cells: THP-1 (human monocyte cell line)
T2 sequence (P41597 1-360 isoform P41597-2): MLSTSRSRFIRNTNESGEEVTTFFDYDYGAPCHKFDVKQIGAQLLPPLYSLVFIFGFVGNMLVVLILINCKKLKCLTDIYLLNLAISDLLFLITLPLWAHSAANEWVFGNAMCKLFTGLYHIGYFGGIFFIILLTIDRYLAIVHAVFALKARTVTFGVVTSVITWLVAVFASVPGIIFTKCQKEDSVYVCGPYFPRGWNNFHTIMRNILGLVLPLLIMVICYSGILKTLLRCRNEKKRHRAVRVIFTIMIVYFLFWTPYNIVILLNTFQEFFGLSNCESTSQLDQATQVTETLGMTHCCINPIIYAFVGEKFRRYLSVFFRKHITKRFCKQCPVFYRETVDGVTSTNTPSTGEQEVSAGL

pEC50 (chimeric dog-human CCR2B)	pEC50 (human CCR2B)	Substance
7.42	7.52	mouse MCP: mouse monocyte chemoattractant protein-1 (chemokine)
6.86	7.28	cMCP-1: canine monocyte chemoattractant protein-1 (chemokine)
